From patent CN110407938A (BEIJING JOINN BIOTECHNOLOGY CO LTD, dated 2019)

Molecular target: T1, TIM-3 (分析物, SPR analyte)
T1 construct: also called TIM-3抗原; 分析物(TIM-3)
Test: SPR (Biacore T200), 25°C; antibody captured by anti-human IgG Fc on a CM5 chip, TIM-3 as analyte at 0-100 nM, 1:1 binding model

T1 sequence (Q8TDQ0 22-202): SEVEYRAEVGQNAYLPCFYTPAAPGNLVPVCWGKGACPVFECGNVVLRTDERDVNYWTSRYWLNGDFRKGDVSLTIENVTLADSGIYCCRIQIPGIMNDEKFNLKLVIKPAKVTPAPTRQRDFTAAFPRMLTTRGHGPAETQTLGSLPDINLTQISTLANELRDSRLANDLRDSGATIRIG

B1: 抗TIM-3抗体 (anti-TIM-3 monoclonal antibody of the invention) (antibody, V domains shown)
VH: QVQLQESGPGLVKPGETLSLTCAVSGGSFSRGGYYWNWIRQPPGKGLEWIGYIYYSGSTNYNPSLKSRVTISLDTSKNQFSLKLSSVTAEDTAVYYCARDHYTSSYNYDYWGQGTLVTVSS
VL: EIVLTQSPATLSLSPGERATLSCRASESVQSYIAWYQQKPGQAPRLLIYNASQRSTGIPARFSGSGSGTDFTLTISSLEPEDFAVYYCQQRFSWPPTFGQGTKLEIK
notes: The variable regions were cloned into the ZY-CDMO vector and expressed in CHO cells; The antibody was purified on Protein A, captured by an anti-human IgG Fc antibody and detected with goat anti-human-HRP, so it carries a human IgG Fc; It came from a phage antibody library; also called 抗TIM-3单克隆抗体; 本发明抗TIM-3抗体
Binder B1 has a Kd of 6.41 nM.
